This passage reports IC50 and Km results from publication PMC4707474, “Identification of a small molecule that simultaneously suppresses virulence and antibiotic resistance of Pseudomonas aeruginosa” (Scientific Reports, 2016).

For series [1], the target named is T1, P. aeruginosa DHODase (PyrD, dihydroorotate dehydrogenase) (Pseudomonas aeruginosa, UniProt Q9HZF8).
T1 construct: pyrD open reading frame from PAO1 genomic DNA, in pET28a, recombinant Ni-NTA purified
Nature of the series: DCIP-based colorimetric enzyme assay, […] min preincubation, dose-response. The class given is biochemical.

Substrate in series [2]: O=C1C[C@@H](C(=O)O)NC(=O)N1
Nature of the series: steady-state enzyme kinetics (Km), DCIP colorimetric assay. The conditions noted are these: FMN. The class given is biochemical, Pseudomonas aeruginosa.

Substrate in series [3]: COC1=C(OC)C(=O)C(C)=CC1=O
Description: steady-state enzyme kinetics (Km) as electron acceptor, DCIP colorimetric assay. Type of series: biochemical, Pseudomonas aeruginosa. The note with it: FMN.

Turning to `C[C@@H](NC(=O)CSc1nnnn1-c1ccc(O)cc1)c1ccc(-c2ccccc2)cc1` [compound 14], the concentration for half-maximal inhibition (IC50) (in general, the concentration that gives 50% inhibition) in series [1] worked out at 41 µM.

B1: P. aeruginosa DHODase (PyrD, dihydroorotate dehydrogenase) (Pseudomonas aeruginosa PAO1) (protein)
chain: MYTLARQLLFKLSPETSHELSIDLIGAGGRLGLNRLLTPKPASLPVSVLGLEFPNPVGLAAGLDKNGDAIDGFGQLGFGFIEIGTVTPRPQPGNPRPRLFRLPQANAIINRMGFNNHGVDHLLARVRAAKYRGVLGINIGKNFDTPVERAVDDYLICLDKVYADASYVTVNVSSPNTPGLRSLQFGDSLKQLLEALRQRQEALALRHGRRVPLAIKIAPDMTDEETALVAAALVEAGMDAVIATNTTLGREGVEGLPHGDEAGGLSGAPVREKSTHTVKVLAGELGGRLPIIAAGGITEGAHAAEKIAAGASLVQIYSGFIYKGPALIREAVDAIAALPRRN
notes: pyrD open reading frame from PAO1 genomic DNA, in pET28a, recombinant Ni-NTA purified
For B1, the results for the Michaelis-Menten constant (Km) in series [2] and in series [3] were 60.8 µM and 25.6 µM, respectively.
